Experimental data taken from publication PMC9635297 (Molecular Biology of the Cell, 2022).

Molecular target: the molecule itself
Test: SEC

B1: 6xHis-Cdc3 (natural protein)
chain: MSLKEEQVSIKQDPEQEERQHDQFNDVQIKQESQDHDGVDSQYTNGTQNDDSERFEAAESDVKVEPGLGMGITSSQSEKGQVLPDQPEIKFIRRQINGYVGFANLPKQWHRRSIKNGFSFNLLCVGPDGIGKTTLMKTLFNNDDIEANLVKDYEEELANDQEEEEGQGEGHENQSQEQRHKVKIKSYESVIEENGVKLNLNVIDTEGFGDFLNNDQKSWDPIIKEIDSRFDQYLDAENKINRHSINDKRIHACLYFIEPTGHYLKPLDLKFMQSVYEKCNLIPVIAKSDILTDEEILSFKKTIMNQLIQSNIELFKPPIYSNDDAENSHLSERLFSSLPYAVIGSNDIVENYSGNQVRGRSYPWGVIEVDNDNHSDFNLLKNLLIKQFMEELKERTSKILYENYRSSKLAKLGIKQDNSVFKEFDPISKQQEEKTLHEAKLAKLEIEMKTVFQQKVSEKEKKLQKSETELFARHKEMKEKLTKQLKALEDKKKQLELSINSASPNVNHSPVPTKKKGFLR
Question: Which “stoichiometry N” value does the source give for B1 here?
Answer: The value was 2.
